Experimental findings from article PMC9965858 are described below.

For assay [1], the target named is Dengue virus type 2 non-structural protein 1 (NS1) produced by DENV2-infected A549 cells (Dengue virus type 2) (UniProt P14340). The assay is described as follows: SDS-PAGE of samples heated or not heated, then Western blot. For orientation: A western blot detects proteins with antibodies after separation by electrophoresis.
Assay [2] addresses recombinant DENV2-NS1^V5-tag (Dengue virus type 2) (UniProt P14340). Described as above.

Turning to “Dengue virus type 2 non-structural protein 1 (NS1) produced by DENV2-infected A549 cells (from UniProt P14340) (natural protein)”, in assay [1], the stoichiometry N (commonly the number of molecules, sites or subunits per partner or assembly) amounted to 2.
For the substance “recombinant DENV2-NS1^V5-tag (from UniProt P14340 776-1127) (natural protein)”, the stoichiometry N in assay [2] worked out at 2.
